# Results: the nanobody polyreactivity screen of Harvey et al. (2022)
# Assay: yeast display, Sf9 membrane polyspecificity reagent, FACS + sequencing; frameworks hold sequencing errors
# Method in brief: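 Genes from sorted yeast were amplified by colony PCR, read by MiSeq 2 × 250 sequencing and filtered on CDR length. These cells carried a synthetic nanobody library in Saccharomyces cerevisiae BJ5465 and were sorted by FACS into low and high (top ~1%) gates on anti-HA and streptavidin fluorescence. Polyreactivity is labelled according to the gate of origin.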
row,Sequence,polyreactivity (PSR sort gate)
1,QVQLVESGGGLVQAGGSLRLSCAASGRTFTRYAMGWYRQAPGKERELVAAISRGGSTYYADSVKGRFTISRDNAKNTVYLQMNSPKPEDTAVYYCAARYGTYTAGNYWGQGTQVTVSS,high polyreactivity
2,QVQIVESGGGLVQAGGSLRLSCAASGSNFLFYVMGWYTQAPVKERELVAAINTGVSTNYADSVKGRFTISRDNAKNTVYLQLNSLKPEDTAVYYCNALPYTSDGRGGYWGQGSQVTVSS,low polyreactivity
3,QVQLVESGGGLVQAGGSLRLSCAASGRIFAVYAMGWYRQAPGKERELVAAIRWSGVRTYYADSVTGRFTISRDTAKKTVYLQMNSLKPEDTAVYYCAADYSGQYYSPVSYLYDYWGQGTQVTVSS,high polyreactivity
4,QVQLVESGGGLVQAGGRLRLSCAASGRIFGYYAMGWYRQAPGKERELVAAISYRGGTTYYADSVKGRFTISRDNAKNTVYLQMNSLKPEDTAVYYCAAAAKSGLDYWGQGTQVTVSS,high polyreactivity
5,QVQLVESGGGLVQAGGSLRLSWAASGYTFGKNAMGWYRQAPGKERELVAAISRSGGSTFYADSVKGRFTISRDNAKNTVYLQMNSLKPEDTAVYYCAAESYGYSAPYDYWGQGTQVTVSS,high polyreactivity
6,QVQLVESGGGLVQAGGSLRLSCAASGRIFYRYAMGWYRQAPGKERELVAAITYSGGSTYYADSVKGRFTISRDNAKNTVYLQMNSLKPEDTAVYYCAAGGRGRPTTPPYGWYKLNYWGQGTQVTVSS,high polyreactivity
7,QVQLVESGGGLVQAGGSLRLSCAASGFIFRRYAMGWYRQAPGKERELVAAINYSGGSTYYADSVKGRFTISRDNAKNTVSLQMNSLKPEDTSVYYCNAFGLRYYEYDYWGQGTQVTVSS,low polyreactivity
8,QVQLVESGGGLVQAGGSLRLSCAASGSIFYHYAMGWYRQAPGKERELVAAISWRGASTYYADSVKGRFTISRDNAKNTVYLQMNSLKPEDTAVYYCARLSSSHPLYRDEYWGQGTQVTVSS,high polyreactivity
9,QVQLVESGGGLVQAGGSLRLTCAASGGTFRLYAMGWYRQAPGKERELVAAISSTGSTYYAASVKGRFTISRDNAKNTVYLQMNSLKPEDTAVYYCNAKLPVTSLKFDYYYWGQGTQVTVSS,high polyreactivity
10,QVQLVESGGGLVQAGGSLRLSCAASGSIFRGYTMGWYRQAHGKERELVAAITSGDSTNYADSVKGRFTISRDNAKNTVYLQMKSLKPEDTAVYSCAAVTRFYTKYYWGQGTQVTVSS,high polyreactivity
11,QVQLVESGGGLVQAGGSLRLSCAASGSIFYWYAMGWYRQEPGKERELVAAIDISDDTYYADSVKGRYTISRDNAKNTVYLLMNRLKPEDTAVYYCATDEWYLFEYPFYYWGQGSQVTVSS,high polyreactivity
12,QVQLVESAGGLVHAGGSLSLSCAASAILGNNAMGWYRQAPRKQRELVAAISARGGRTYYADSVKGRFTISRDNAKNTVYLQMNSLKPEDTAVYYCATLETSGVNYWGQGTQVTVSS,high polyreactivity
13,QVQLVESGGGLVQAGGSLRLSCAASGRTLRYYAMGRYIQAPGKERELVAIITSTGSTYYADSVKGRFTISRDNAKNTVYLQMNSLKPEDTAVYYCNRVISVSLDYLGENYWGQGTQVTVSS,high polyreactivity
14,QVQLQESGGGLVQAGGSLRLSCAASGNISVTGFMGWYRQAPGKERELVASIGIGGTTYYADSVKGRFSISRDNAKNTVYVQMNSLKPEDTAVYYCAARYLYYAYSYWGQGTQVTVRS,low polyreactivity
15,QVHLVESVGGLVQAGGILRLSCAASGFTFYSYAMGCYRQAPGNERELVAAITRSGGNTYYADSVKGRFTISRDNAKNTVYLQMNSLKPEDTAVYYCDATGKRISPSHYYCGQGTQVTVSS,high polyreactivity
16,QVHHVESGGGLVQAGGSLRLSCAASGRIFSYYAMGRYRPAPGKERELVAAITSRGTRTYYADSVKGRFTISRDNAKNTVYLQMNSLKPDDTAVYYCNVVSDIRLYFRFAYDYWGQGTQVTVSS,high polyreactivity

row,Sequence,polyreactivity (PSR sort gate)
1,QVQLVESGGRLVQAGGSLRLSCAASGFIFSRYAMGWSRQAPGKERELVAAISRGGSTNYADSVMGRFTISRDNAKNTVYLQMNSLKPEDTAVYYCAVRQIVRYYYWGQGTQVTVSS,high polyreactivity
2,QVKRVESGGGLVQAGGSLRLSCAASGSTFYRYAMGWYRQAPGKERELVAAINGRGGRTYYADSVKGRFTISRDNAKNTVYLQMNSLKPEDTAVYYCAARGYAPDTYGYWGQGTQVTVSS,high polyreactivity
3,QVQLVESAGGLVQAGGSLRLSCAASGFIFVRNAMGWYRPAPGKVRELVAAISRSGGRTYNADSVKGRFTISRDNAKNTVYLQMNSLKPEDTAVYYCAARSGYFRSRFDYWGQGTQVTVSS,high polyreactivity
4,QVQLVESGGGLVQAGGSLRLSCAASGFTFSYNAMGWYRQAPGKERELVAVINSSGGRTYYADSVKGRFTISRDNAKNTVYLQMNSLKPEDTAVYYCAARPVLAKYYYWGQGTQVTVSS,high polyreactivity
5,QVQLVESGGGLVQAGGSLRLSCAASGSTFNLYAMGWYRQAPGKERELVASISRSGVSTYYADSVKGRFTISRDNAKNTVYLQMNSLKPEDTAVYYCAVDKVLYRLYTGMDYWGQGTQVTVSS,low polyreactivity
6,QVQLVESGGGLVQAGGSLRLSCAASGSIFKEYAMGWYRQAPGKERELVATISWSGGSTYYADSVKGRFTISRDNAKNTVYLQMNSLKPEDTAVYYCNKSTPWWYVVRYDYWGQGTQVTVSS,high polyreactivity
7,QVQLVESGGGLVQAGGSLRLSCAASGSTFRRYAMGWYRQAPGKERELVAAITSTDVNTYYADSVKGRFTISRDNAKNTVYLQMNSLKPEDTAVYYCAAVYLGYYGVSDMEYWGQGTQVTVSS,high polyreactivity
8,QVQLVESGGGLVQAGGSLRLSCAASGRNYVPYAMGWYRQAPGKERELVAALSNSGGSTYYADSVKGRFTISRDNAKNTGYLQRNSLKPEYTAVYFCAPDGRYAYGYNHWGQGTQVTGSS,low polyreactivity
9,QVQLVESAGGLDQARGSLRLSCAASGFTFIRYAMGWYRQAPGKESELVATITRSGGSTYYADSVKGRFTISRDNAKNTVYLQMNSLKPEDTAVYYCAKRGTLGSYYYWGQGTQVTVSS,high polyreactivity
10,QVQLVESGGGLVQAGGSLRLSCAASGRIFKWYAMGWSRQAPGKEWEFVAGISGSAGRTYYADSVKGRCTISRDNAKNTVYLQMNSLKPEDTAVYYCAAVYYSSLYDYWGQGTQVTVSS,low polyreactivity
11,QVQLVESGGGLVQAGGSLRLSCAASGFIFDRNAMGWYRQAPGKERELVAAISVSGGNTYYADSVKGRFTISRDNAKNTVYLQMNSLKPEDTAVYYCAASRYHSTRGDYWGQGTQVTVSS,high polyreactivity
12,QVQLQESGGGLVHAGGSLRLSCAASGTISFINMMGWNRQAPGRERELVASINFGANTNYADSVKGRFTISRDNAKNTVYVQMNSLKPEDTAVYYCAVYDFDAYTLDYWGQGTLVTVSS,high polyreactivity
13,QDQLVESGGGLVQAGGSIRLSCAASGSILRSNALGWYRQAHVQERELVAAITFNGGSTYADSVKGRFTISRDNAKNNVYLQMNSLKPVDTSVSYCATGDGPCLFDYWGQGTQVTVSS,low polyreactivity
14,QVQLVESGGGLVQAGGSLRLSCAASGRIFKIYSMGWYRQAPGKERELVAAISYRGTSTYYADSVKGRFTISRDNAKNTVYLQMNSLKPEDTAVYYCARRDTYTRYYWGQGTQVTVSS,high polyreactivity
15,QGQLEESGGGLVQAGGSLRLSCPASGYILGGNAMGWYRQAPGKERELVARIRVSSGSTYADSVKGRFTISRDNAKNTVYLQMNSLKPEDTAVYYCAASISSRYRYTAYDYWGQGTQVTVSS,high polyreactivity
16,QVQLVESGGGLVQAGGSLRLSCAASGSTFFYNVMGWYRQAPGKERELVAAITSSGGGTYYADSVKGRFTISRDNAKNTVYLQMNSLKPEDTAVYYCAKPVWLRDYRHGGRFGYWGQGTQVTVSS,low polyreactivity
